{
  "source": "the nanobody polyreactivity screen of Harvey et al. (2022)",
  "data": [
    {"assay": "yeast display, Sf9 membrane polyspecificity reagent, FACS + sequencing; frameworks hold sequencing errors", "in_short": "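Sorting gates, low and high (top ~1%), were placed on anti-HA fluorescence to track expression and on streptavidin fluorescence to track reagent binding. A clone's polyreactivity label is taken from the gate it came out of. The reagent was 10% biotinylated, detergent-solubilized Sf9 membrane, applied for 1 hour at 4 °C to galactose-induced yeast display cells.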", "values": [
      {"sequence": "QVQLVESGGGLVQAGGSLRLSCAASGRIFAYYAMGWYRQAPGKERELVAAITRSGARTYYADSVKGRFTISRDNAKNTVYLQMNSLKPEDTAVYYCAAEGVRIGTRYDYWGQGTQVTVSS", "polyreactivity (PSR sort gate)": "high polyreactivity"},
      {"sequence": "QVQLVESGGGLVQAGGSLRLSCAASGRIFAYYAMGWYRQAPGKERELVAGISKSGGRTYYADSVKGRFTISRDNAKNTVYLQMNSLKPEDTAVYYCAVESYRRYYYWGQGTQVTVSS", "polyreactivity (PSR sort gate)": "high polyreactivity"},
      {"sequence": "QVQLVESGGGLVQAGGSLRLSCAASGRIFCTNAMGWYRHEPGKERELVADITSGGSTNYADSVKGRFTISRDNAKNTVYLQMNSLKPEDTAVYSCAADVIGDLRWYRDEYWGQGTQVTVSS", "polyreactivity (PSR sort gate)": "low polyreactivity"},
      {"sequence": "QVQLVESGGGLVQAGGSLRLSCAASGRIFDAKVMGWYRQAPGKERELVAAISASAGSTSYADSVKGRFTISRDNAKNTVYLQMNSLKPEDTSVYYCAADPYQLWHYYYFGMDYWGQGTQVTVSS", "polyreactivity (PSR sort gate)": "low polyreactivity"},
      {"sequence": "QVQLVESGGGLVQAGGSLRLSCAASGRIFDDNAMGWYRQAPGKERELVADINNATSTNYADSVKGRFTISRDNAKNTVYLQMNSLKPEDTAVYYCAADDYIYYRILGDSFVYKAYGYWGQGTQVTVSS", "polyreactivity (PSR sort gate)": "low polyreactivity"},
      {"sequence": "QVQLVESGGGLVQAGGSLRLSCAASGRIFDDYAMGWYRQAPGKERELVAAIRSGGNTNYADSVKGRFTISRDNAKNTVYLQMNSLKPEDTADYYCAADTWFRAGYFVVYYDYWGQGTQVTVSS", "polyreactivity (PSR sort gate)": "low polyreactivity"},
      {"sequence": "QVQLVESGGGLVQAGGSLRLSCAASGRIFDGNARGWYIQAPGKERELVAAISRNGGTYYADSVKGRFTISRDNAKNTVYLQMNSLKPEDTAVYYCAADPSSVGYHVEYDYWGQGTQVTVSS", "polyreactivity (PSR sort gate)": "low polyreactivity"},
      {"sequence": "QVQLVESGGGLVQAGGSLRLSCAASGRIFDGYAIGWYRQAPGKERDLVAAISWGGGSTYYADSVKGRFTISRDNAKNTVYLQMNSLKPDDTAVYYCAGDGIWAREMDYWGQGTQVTVSS", "polyreactivity (PSR sort gate)": "low polyreactivity"},
      {"sequence": "QVQLVESGGGLVQAGGSLRLSCAASGRIFDGYAIGWYRQAPGKERELVAAISSRGGRTYYADSVKGRFTISRDNAKNTVYLQMNSLKPEDTAVYYCAAVDPYGEGDYWGQGTQVTVSS", "polyreactivity (PSR sort gate)": "low polyreactivity"},
      {"sequence": "QVQLVESGGGLVQAGGSLRLSCAASGRIFDHNAMGWYRQAPGKERELVAAINYSDDSTYYADSVKGRFTISRDNAKNTVYLQMNSLKPEDTAVYYCNADVGSEYSDKYDYWGQGTQVTVSS", "polyreactivity (PSR sort gate)": "low polyreactivity"},
      {"sequence": "QVQLVESGGGLVQAGGSLRLSCAASGRIFDINAMGWYRQAPGKERELVAAINYNGSSTYYADSVKGRFTISRDNAKNTVYLEMNSLKPEDTAVYYCATEQVDVYTYDYWGQGTQVTVSS", "polyreactivity (PSR sort gate)": "high polyreactivity"},
      {"sequence": "QVQLVESGGGLVQAGGSLRLSCAASGRIFDKYAMGWYRQAPGKERELVAAIDWSGGSTYYADSVKGRFTISRDNAKNTVYLQMNSLKPEDTAVYYCAAYWYYEDGQSEARLYGYDYWGQGTQVTVSS", "polyreactivity (PSR sort gate)": "low polyreactivity"},
      {"sequence": "QVQLVESGGGLVQAGGSLRLSCAASGRIFDNYVMGWYRQAPGKERELVAAISSGGGTYYADSVKGRFTISRDNAKNTVYLQMNSLKPEDTAVYYCAKRRVYDRSFGRYDYWGQGTQVTVSS", "polyreactivity (PSR sort gate)": "low polyreactivity"},
      {"sequence": "QVQLVESGGGLVQAGGSLRLSCAASGRIFDPYAMGWYRQAPGKERELVASISWSGGRTYYADSVKGRFTISRDNAKNTVYLQMNSLKPEDTAVYYCAARQWYRYKVRFDYWGQGTQVTVSS", "polyreactivity (PSR sort gate)": "high polyreactivity"},
      {"sequence": "QVQLVESGGGLVQAGGSLRLSCAASGRIFDQYAMGWYRQAPGKERELVAVISSSGTTNYADSVKGRFTISRDNAKNTVYLQMNSLKPEDTAVYYCAARRQSWFVAAHMDYWGQGTQVTVSS", "polyreactivity (PSR sort gate)": "low polyreactivity"},
      {"sequence": "QVQLVESGGGLVQAGGSLRLSCAASGRIFDVYAMGWYRQAPGKERELVATITGSGGGTYYADSVKGRFTISRDNAKNPVYLQMNSLKPEDTADYYCAADYYPTYAYYVSNVGYDYWGQGTQVTVSS", "polyreactivity (PSR sort gate)": "low polyreactivity"},
      {"sequence": "QVQLVESGGGLVQAGGSLRLSCAASGRIFDWNMGWYRQAPGKDRELVAGITFSVDSTYYADSVKGRFTISRDNAKNTVYLQMNSLKPEDTAYWGQGTQVTVST", "polyreactivity (PSR sort gate)": "low polyreactivity"},
      {"sequence": "QVQLVESGGGLVQAGGSLRLSCAASGRIFDYNAMGWYRQAPGKERELVAAISSRGGRTYYADSVKGRFTISRDNAKNTVYLQMNSLKPEDTAVYYCNTGWATDADDYWGQGTQVTVSS", "polyreactivity (PSR sort gate)": "high polyreactivity"},
      {"sequence": "QVQLVESGGGLVQAGGSLRLSCAASGRIFDYNVMGWYRQPPGKESELVAAISWDGDSTYYADSVKGRFTISRDNAKNSVYLQMKSLKPEDTAVYYCNRVEGGTSWADEMNYWGQGTQVTVSS", "polyreactivity (PSR sort gate)": "low polyreactivity"},
      {"sequence": "QVQLVESGGGLVQAGGSLRLSCAASGRIFDYYDMGWYRQAPGKERELVAAISNGGSTYYADSVKGRFTISRDNAKNTVYLQMNCLKPEDTAVYYCNNRWYYQYGQSHVRWYDYWGQGTQVTVSS", "polyreactivity (PSR sort gate)": "high polyreactivity"},
      {"sequence": "QVQLVESGGGLVQAGGSLRLSCAASGRIFEEYAMGWYRQAPGKERELVAAITWGGSTYYADSVKGRFTISRDNAKNTVYLQMNSLKPEDTAVYYCAALKSYYWYTPRYRGDYWGQGTQVTVSS", "polyreactivity (PSR sort gate)": "low polyreactivity"},
      {"sequence": "QVQLVESGGGLVQAGGSLRLSCAASGRIFENNAMGWYRQAPGKERELVAAITSGGSTYYADSVKGRFTISRDNAKNTVYLQMNSLKPEDTAVYYCNVTFRVDPWTRTGYDYWGQGTQVTVSS", "polyreactivity (PSR sort gate)": "high polyreactivity"},
      {"sequence": "QVQLVESGGGLVQAGGSLRLSCAASGRIFEPYAMGWYRKAPGKERELLAAITSGGSTDYADSVKGRFTISRDNAKNTVYLQMNSLKPEDTAVYYCATRWGYAVSFDFYFLLSGVDYWGQGTQVTVSS", "polyreactivity (PSR sort gate)": "low polyreactivity"},
      {"sequence": "QVQLVESGGGLVQAGGSLRLSCAASGRIFESYAMGWYIQAPGKERELVAAISSGGGTTYYADSVKGLFTISRDNAKYSVYLQMNSLKPEDTAVYYCAADALSDEYDYWGQGTHVTVSS", "polyreactivity (PSR sort gate)": "low polyreactivity"},
      {"sequence": "QVQLVESGGGLVQAGGSLRLSCAASGRIFETNGMGWYRQAPGKERELVAAITRSGGVRTYADSVKGRFTISRDNAKNTVYLQMNSLKPEDTAVYYCNKRSILGRGTPSPYKRMYHWGQGTQVTVSS", "polyreactivity (PSR sort gate)": "low polyreactivity"},
      {"sequence": "QVQLVESGGGLVQAGGSLRLSCAASGRIFEVYAMGWYRQAPGKERELVAAITSSGGSRTYYADSVKGRFTISRDNAKNTVYLQMNSLKPEDTAVYYCNDYGGRWIGGRRAYRYNYWGQGTQVNVSS", "polyreactivity (PSR sort gate)": "high polyreactivity"},
      {"sequence": "QVQLVESGGGLVQAGGSLRLSCAASGRIFEWNTMGWYRQAPGKEREVVATISWDGGSTYYADSVKGRFTISRDNAKNTVYLQMNSLIPEDTAVYYCNKSPLNFFRFRATYDYWGQGTQVTVSS", "polyreactivity (PSR sort gate)": "low polyreactivity"},
      {"sequence": "QVQLVESGGGLVQAGGSLRLSCAASGRIFFANAMGWYRQAPGKERELVAAITSDGSTDYADSVKGRFTISRDNAKNTVYLQMNSLKPEDTAVYYCNADAYYRYGITMDYWGQGTQVTVSS", "polyreactivity (PSR sort gate)": "low polyreactivity"},
      {"sequence": "QVQLVESGGGLVQAGGSLRLSCAASGRIFFANTMGWYRQAPGKERELVAAISLSSGSTYYADSVKGRFTISRDNAKNTVYLQMNSLKPEDTAVYYCAARGYSHVASRLYYYWGQGTQVTVSS", "polyreactivity (PSR sort gate)": "high polyreactivity"},
      {"sequence": "QVQLVESGGGLVQAGGSLRLSCAASGRIFFANTMGWYRQAPGKERELVAAISLSSGTTYYADSVKGRFTISRDNAKNTVYLQMNSLKPDETAVYYCAARGYSHVASRLYYYWGQGTQVTVSS", "polyreactivity (PSR sort gate)": "high polyreactivity"},
      {"sequence": "QVQLVESGGGLVQAGGSLRLSCAASGRIFFATAMGWYRQAPGNERELVAAITSDGSTDYADSVKGRFTISRDNAKNTVYLQMNSLKPEDTAVYDCNADAYYRYGITMDYWGQGTQVTVSS", "polyreactivity (PSR sort gate)": "low polyreactivity"},
      {"sequence": "QVQLVESGGGLVQAGGSLRLSCAASGRIFFFNTMGWYRQAPGKERELVARINRGGRTNYADSVKGRFTISRDNAKNTVYLQMNSLKPEDTAVYYCAADRTWYKLETTEYDYWGQGTQVTVSS", "polyreactivity (PSR sort gate)": "high polyreactivity"},
      {"sequence": "QVQLVESGGGLVQAGGSLRLSCAASGRIFFHNAMGWYIQAPGKERELVATISWSGSSTYYADSVKGRFTISRDNAKNTVYLQMNSLKPEYTAVYYCNAVYGRFVVLRYDYWGQGTQVTVSS", "polyreactivity (PSR sort gate)": "high polyreactivity"},
      {"sequence": "QVQLVESGGGLVQAGGSLRLSCAASGRIFFLYAMGWYRQAPGKERELVASITRRGGSTYYADSVKGRFTISRDNAKNTVYLQMKSLKPEDTAVYYCAAELYRSNVYHYDYWGQGTQVTVSS", "polyreactivity (PSR sort gate)": "high polyreactivity"},
      {"sequence": "QVQLVESGGGLVQAGGSLRLSCAASGRIFFLYAMGWYRQAPGKERELVASITRRGGSTYYADSVKGRVTISRDNAKNTVYLQMTSLKPEDTAVYYCAAELYRSNVYHYDYWGQGTQVTVSS", "polyreactivity (PSR sort gate)": "high polyreactivity"},
      {"sequence": "QVQLVESGGGLVQAGGSLRLSCAASGRIFFNYAMGWYIQAPGKERELVARITGSGGRTYYADSVKGRFTISRDNAKNTVYLQMNSLKPEDTAVYYCNKVPGYKYDSWGQGTQVTVSS", "polyreactivity (PSR sort gate)": "high polyreactivity"},
      {"sequence": "QVQLVESGGGLVQAGGSLRLSCAASGRIFFNYAMGWYRQAPGKQRELDAAITTNGGSTYYAVSVKGRFTISRDNAKNTVYLLMNSLKPEDTAVYYCNTRRKNFVKSSQVEYWGQGTQVTVSS", "polyreactivity (PSR sort gate)": "high polyreactivity"},
      {"sequence": "QVQLVESGGGLVQAGGSLRLSCAASGRIFFRNAMGWYRQAPGKEREFVAAINWSGGSTYYADSVKGRFTISRDNAKNTVYLQMNSLKPEDTAVYYCAARGSRGGRRGATASMDYWGQGTQVTVSS", "polyreactivity (PSR sort gate)": "high polyreactivity"},
      {"sequence": "QVQLVESGGGLVQAGGSLRLSCAASGRIFFRYAMGWYRQAPGKERELVAAISYSGGSTYYADSVKGRFTISRDNAKNTVYLQMNSLKPDDTAVYYCATGPVYEYDYWGQGTQVTVSS", "polyreactivity (PSR sort gate)": "low polyreactivity"},
      {"sequence": "QVQLVESGGGLVQAGGSLRLSCAASGRIFFVNAMGWYRQAPGKERELVAAITYSGARTYYADSVKGRFTISRDHAKNTVYLQMNSLKPEDTAVYYCNADQRTASDQLEFDYWGQGTQVTVSS", "polyreactivity (PSR sort gate)": "low polyreactivity"},
      {"sequence": "QVQLVESGGGLVQAGGSLRLSCAASGRIFFWYAMGWYRQAPGKERELVAAISKSGGSTYYADSVKGRFTISRDNAKNTVYLQMNSLKPEDTAVYYCARVSKRTWSGYYYWGQGTQVTVSS", "polyreactivity (PSR sort gate)": "high polyreactivity"},
      {"sequence": "QVQLVESGGGLVQAGGSLRLSCAASGRIFFYNAMGWYRQAHGKERELVAAISARGDRTYYADSVKGRFTISRDNAKNTVYLQMNSLKPEDTAVYYCAADYYNYRYDYWGQGTQVTVSS", "polyreactivity (PSR sort gate)": "high polyreactivity"},
      {"sequence": "QVQLVESGGGLVQAGGSLRLSCAASGRIFFYNAMGWYRQAPGKERELVATIRGGGSTNYADSVKGRFTISRDNAKNTVYLQMNSLKPEDTAVYYCAARRGSYSVTEYWGQGTQVTVSS", "polyreactivity (PSR sort gate)": "high polyreactivity"}
    ]}
  ]
}
